Test results reported in paper PMC5440694 (Nature Communications, 2017).

Tests used:
Test in all cases: BLI
Conditions in all cases: both partners purified
[1] = biological target: biotinylated HA0 ectodomain of A/Panama/2007/1999 (H3N2) (Influenza A virus A/Panama/2007/1999 …, UniProt Q1K9M3, strain, biotin on the BirA biotinylation site)
[2] = biological target: biotinylated HA0 ectodomain of A/New Caledonia/20/1999 (H1N1) (Influenza A virus A/New …, UniProt Q6WG00, strain, biotin on the BirA biotinylation site)
[3] = biological target: biotinylated HA0 ectodomain of A/Beijing/262/1995 (H1N1) (Influenza A virus A/Beijing/262/1995 …, UniProt Q6WG01, strain, biotin on the BirA biotinylation site)
[4] = biological target: biotinylated HA0 ectodomain of A/Solomon Islands/3/2006 (H1N1) (Influenza A virus A/Solomon …, UniProt A7Y8I1, strain, biotin on the BirA biotinylation site)
[5] = biological target: biotinylated HA0 ectodomain of A/Perth/16/2009 (H3N2) (Influenza A virus A/Perth/16/2009 (H3N2), UniProt C6KNH7, strain, biotin on the BirA biotinylation site)

Row | Binder | Kd [1] [nM] | Kd [2] [nM] | Kd [3] [nM] | Kd [4] [nM] | Kd [5] [nM]
1 | C05 Fab variant VVSSGW, expressed in insect cells (Fab, V domains shown) VH: QVQLQESGGGLVQPGESLRLSCVGSGSSFGESTLSYYAVSWVRQAPGKGLEWLSIINAGGGDIDYADSVEGRFTISRDNSKETLYLQMTNLRVEDTGVYYCAKHMSMQQVVSSGWERADLVGDAFDVWGQGTMVTVSS VL: DIQLTQSPSSLSASVGDRVTLTCQASQDIRKFLNWYQQKPGKGPKLLIYDASNLQRGVPSRFSGGGSGTDFTLIISSLQPEDVGTYYCQQYDGLPFTFGGGTKVVIK | 1290 ± 71 | 2.9 ± 0.1 | 259 ± 2.8 | 4.6 ± 0.6 | 43.7 ± 0.5
2 | C05 Fab variant VTGSGW, expressed in insect cells (Fab, V domains shown) VH: QVQLQESGGGLVQPGESLRLSCVGSGSSFGESTLSYYAVSWVRQAPGKGLEWLSIINAGGGDIDYADSVEGRFTISRDNSKETLYLQMTNLRVEDTGVYYCAKHMSMQQVTGSGWERADLVGDAFDVWGQGTMVTVSS VL: DIQLTQSPSSLSASVGDRVTLTCQASQDIRKFLNWYQQKPGKGPKLLIYDASNLQRGVPSRFSGGGSGTDFTLIISSLQPEDVGTYYCQQYDGLPFTFGGGTKVVIK | 4340 ± 207 | 1.1 ± 0.2 | 182.3 ± 0.5 | 116 ± 1.9 | 125.1 ± 1.2
